Two molecules from paper PMC8233815 can be followed below.

Like-named read-outs stand apart in the source and are kept apart here.

Data set [1] concerns the target T1, Elk1 ETS domain (Homo sapiens, UniProt P19419 1-93).
T1 sequence: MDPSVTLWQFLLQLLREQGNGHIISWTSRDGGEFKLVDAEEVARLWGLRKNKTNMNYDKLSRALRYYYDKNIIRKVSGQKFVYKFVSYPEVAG
As to the kind of experiment: SPR.

Data set [2] deals with T1, Elk1 ETS domain. The data set can be described thus: SPR. This is another data set of the same source. In general terms: In SPR one partner is held on a chip, and binding of the other changes the refractive index at the surface.

B1: E74 (dsDNA)
DNA 1: CTGAATAACCGGAAGTAACTCATC
DNA 2: GATGAGTTACTTCCGGTTATTCAG
Turning to B1, the binding result in data set [1] is recorded as “binds”.

B2: SD1 (scrambled nonspecific) (dsDNA)
DNA 1: CGCAAAAGCTGAGATGGCGTGCC
DNA 2: GGCACGCCATCTCAGCTTTTGCG
On to B2, for which the binding result in data set [2] is recorded as “no binding”.
